We go through one molecule from doi:10.1101/2024.02.06.579161.

The experiment deals with T1, S100A9, P06702.
T1 chain: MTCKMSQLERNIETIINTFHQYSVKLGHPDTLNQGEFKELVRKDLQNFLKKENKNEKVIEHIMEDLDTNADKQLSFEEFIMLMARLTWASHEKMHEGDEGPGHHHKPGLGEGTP
As to the kind of experiment: SDS-PAGE. To be noted: remark: other sources report otherwise.

B1: S100A9, P06702 1-114 (natural protein)
chain: MTCKMSQLERNIETIINTFHQYSVKLGHPDTLNQGEFKELVRKDLQNFLKKENKNEKVIEHIMEDLDTNADKQLSFEEFIMLMARLTWASHEKMHEGDEGPGHHHKPGLGEGTP
In general, stoichiometry N refers to the number of molecules, sites or subunits per partner or assembly. The molecule B1 had a stoichiometry N of 2.
